Test [1] has as its target T1, Murine folate receptor alpha (mouse, UniProt P35846 25-232).
T1 construct: Stably expressed on CHO cells (CHO-mFOLR1); also called mouse FOLR1; CHO-mFOLR1
In words: FACS, CHO-mFOLR1 cells.

In test [2] the target is T2, Cynomolgus folate receptor alpha (cynomolgus monkey, UniProt P15328 25-234 (human entry)).
T2 construct: Stably expressed on CHO cells (CHO-cFOLR1); also called cynomolgus FOLR1; CHO-cFOLR1
Kind of test: FACS, CHO-cFOLR1 cells.

Test [3] deals with T3, Human folate receptor alpha (hFOLR1) (human, UniProt P15328 25-234).
T3 construct: Stably expressed on CHO cells (CHO-hFOLR1) for flow cytometry; endogenous on FOLR1-positive KB and Igrov1 cells in the killing assay; also called human FOLR1; FolRα
T3 sequence (P15328 25-234 limits assumed): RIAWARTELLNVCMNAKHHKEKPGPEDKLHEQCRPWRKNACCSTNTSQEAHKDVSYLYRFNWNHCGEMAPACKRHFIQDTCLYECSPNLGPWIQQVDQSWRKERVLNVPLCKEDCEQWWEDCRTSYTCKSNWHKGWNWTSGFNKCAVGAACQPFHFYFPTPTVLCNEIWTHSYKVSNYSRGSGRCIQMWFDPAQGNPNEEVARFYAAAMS
Kind of test: FACS, CHO-hFOLR1 cells. As to the method: CHO cells were transfected to stably express human (CHO-hFOLR1), cynomolgus (CHO-cFOLR1), or mouse (CHO-mFOLR1) target molecule FOLR1 on the cell surface. Parental CHO cells were used as a negative control to determine background binding levels. Parental CHO and stably transfected CHO-hFOLR1, CHO-cFOLR1, and CHO-mFOLR1 cells were cultured in Ham's F-12: high glucose DMEM (50:50) (Corning, Cellgro-Mediatech) supplemented with 10% heat-inactivated fetal bovine serum (Corning, Cellgro-Mediatech), 1% Penicillin/Streptomycin (Corning, Cellgro-Mediatech) and 2 mmol/L-glutamax (Life Technology).
A mixture of fluoresecent-labeled parental CHO cells and unlabeled CHO-hFOLRlcells were prepared as follows. Parental CHO cells were washed twice in PBS and incubated in PBS containing with 1 nM CellTrace™ Oregon Green488® (Life Technologies) at 37° C. for 30 minutes. Labeled parental CHO cells were then washed 2× with Ham's F-12 media and 2× with FACS buffer (PBS with 1% bovine serum albumin). Unlabeled CHO-hFOLR1 cells were similarly washed and prepared. Labeled parental CHO and unlabeled CHO-hFOLR1 cells were combined at 1:1 ratio and seeded at 50 μL per well (200,000 cells per well) in 96 well polypropylene plates. Cells were mixed with 50 μL of test antibodies (i.e., anti-FOLR1 variants) serially diluted in FACS buffer and incubated on ice for 60 mins. Cells were washed with FACS buffer and incubated on ice for 60 mins with 100 μL FACS buffer containing 2.5 μg/mL R-Phycoerythrin-conjugated goat anti-Human IgG (Jackson ImmunoResearch Laboratories, West Grove, Pa.). Cells were washed twice with FACS buffer, fixed in 2% paraformaldehyde in PBS (Santa Cruz Biotechnology; Dallas, Tex.) for 10 mins on ice in the dark, and analyzed using the BD LSR II Flow Cytometer (BD Biosciences; San Jose, Calif.). Data were analyzed using FlowJo® software (FlowJo, LLC; Ashland, Oreg.) to determine mean fluorescence intensities. Binding constants were calculated using the statistical software, GraphPad Prism (GraphPad Software; La Jolla, Calif.) using the nonlinear regression equation, one site-specific binding with Hill slope. Secondary antibody alone was used as a control, in addition to measuring non-specific antibody binding to CHO parental cells.

The target of test [4] is FOLR1 on FOLR1-positive Igrov1 cells (UniProt P15328 25-234, limits assumed). Kind of test: cell-based or functional assay.
Chain of FOLR1 on FOLR1-positive Igrov1 cells (P15328 25-234 limits assumed): as above
Another test concerns the target T4, human FOLR1-HIS (human, UniProt P15328 25-234).
T4 construct: Soluble analyte of the Biacore assay; also called human folate receptor alpha; hFOLR1; not shown: HIS tag
Kind of test: SPR (Biacore), antibody captured on anti-Fc, FOLR1-HIS as analyte, 25 C. As to the method:
Anti-Fc polyclonal antibodies were immobilized onto a CM5 chip (GE Life Sciences) using amine coupling chemistry (from Amine Coupling Kit, GE Life Sciences). The immobilization steps were carried out at a flow rate of 25 μL/min in 1×HBS-EP+buffer (GE Life Sciences; 10× Stock diluted before use). The sensor surfaces were activated for 7 min with a mixture of N-hydroxysuccinimide (NHS, 0.05 M) and 1-ethyl-3-(3-dimethylaminopropyl)-carbodiimide (EDC, 0.2 M). The anti-Fc polyclonal antibodies were injected over all 4 flow cells at a concentration of 25 μg/mL in 10 mM sodium acetate, pH 4.5, for 7 min. Ethanolamine (1 M, pH 8.5) was injected for 7 min to block any remaining activated groups.
Off-rate and kinetic binding experiments were performed at 25° C. using 1×HBS-EP+buffer. Test and control antibodies were injected over the anti-Fc surface at concentrations of 5-10 μg/mL for 12 seconds at a flow rate of 10 μL/min on flow cells 2, 3 and 4, followed by a buffer wash for 30 seconds at the same flow rate.
The data were fit with the Biacore T200 Evaluation software, using a 1:1 Langmuir binding model. KD (affinity, nM) was determined as a ratio of the kinetic rate constants calculated from the fits of the association and dissociation phases.

T2 sequence (P15328 other isoform, or with tags, fused parts or gaps limits assumed): as the sequence (P15328 25-234 limits assumed) above, with I2T, W4R, R37K, Q117R, A146P, H171Y counted along it
T1 sequence (P35846 25-232 limits assumed): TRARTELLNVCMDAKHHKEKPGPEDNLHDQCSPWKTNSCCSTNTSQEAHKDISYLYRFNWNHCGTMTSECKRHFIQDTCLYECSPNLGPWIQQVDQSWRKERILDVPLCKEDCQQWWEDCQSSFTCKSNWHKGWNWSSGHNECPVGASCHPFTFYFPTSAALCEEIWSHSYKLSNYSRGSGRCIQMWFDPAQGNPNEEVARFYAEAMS
T4 sequence (P15328 25-234 limits assumed): as the sequence (P15328 25-234 limits assumed) above

B1: SRP1848-A01 (antibody, V domains shown)
VH: EVQLVESGGGLVQPGGSLRLSCAASGFNITRYSIHWVRQAPGKGLEWVAGILPESGGTSYADSVKGRFTISADTSKNTAYLQMNSLRAEDTAVYYCARHIYPWDWFSNYVLDYWGQGTLVTVSS
VL: not shown
notes: VH/VL only; Fc-bearing IgG format with trastuzumab LC, HIS/FLAG-tagged, cell-free expressed; constant regions not tied; also called Antibody 1
Consider B1, for which the Bmax is 16500 MFI in test [1], 22600 MFI in test [2] and 25900 MFI in test [3].

B2: SRP1848-G06 (antibody, V domains shown)
VH: EVQLVESGGGLVQPGGSLRLSCAASGFNIRSTDIHWVRQAPGKGLEWVAYITPAGGATYYADNVKGRFTISADTSKNTAYLQMNSLRAEDTAVYYCARQPYWFAGYMDYWGQGTLVTVSS
VL: not shown
notes: VH/VL only; Fc-bearing IgG format with trastuzumab LC, HIS/FLAG-tagged, cell-free expressed; constant regions not tied; also called Antibody 50
Turning to B2, the Bmax in test [1] is 1860 MFI; in test [2], 12800 MFI; in test [3], 25800 MFI.

B3: SRP1848-G11 (antibody, V domains shown)
VH: EVQLVESGGGLVQPGGSLRLSCAASGFNISSTDIHWVRQAPGKGLEWVAYITPAGGATWYADSVKGRFTISADTSKNTAYLQMNSLRAEDTAVYYCARYPYWFSGYMDYWGQGTLVTVSS
VL: not shown
notes: VH/VL only; Fc-bearing IgG format with trastuzumab LC, HIS/FLAG-tagged, cell-free expressed; constant regions not tied; also called Antibody 54
On to B3, for which the results for the Bmax in test [1], in test [2] and in test [3] were 2740 MFI, 11800 MFI and 27200 MFI, respectively.

B4: SRP1848-G07 (antibody, V domains shown)
VH: EVQLVESGGGLVQPGGSLRLSCAASGFNIHSTDIHWVRQAPGKGLEWVAYITPAGGATWYADSVKGRFTISADTSKNTAYLQMNSLRAEDTAVYYCARYPFWFAGYMDYWGQGTLVTVSS
VL: not shown
notes: VH/VL only; Fc-bearing IgG format with trastuzumab LC, HIS/FLAG-tagged, cell-free expressed; constant regions not tied; also called Antibody 51
For the molecule B4, the Bmax is 1980 MFI in test [1], 13700 MFI in test [2] and 24900 MFI in test [3].

B5: SRP1848-G10 (antibody, V domains shown)
VH: EVQLVESGGGLVQPGSSLRLSCAASGFNIRSTDIHWVRQAPGKGLEWVAYITPAGGATYYADSVKGRFTISADTSKNTAYLQMNSLRAEDTAVYYCARYPYWFAGYIDYWGQGTLVTVSS
VL: not shown
notes: VH/VL only; Fc-bearing IgG format with trastuzumab LC, HIS/FLAG-tagged, cell-free expressed; constant regions not tied; also called Antibody 53
For B5, the Bmax in test [1] turned out to be 2890 MFI; in test [2] it was 14200 MFI; in test [3], 25300 MFI.

B6: SRP1848-G09 (antibody, V domains shown)
VH: EVQLVESGGGLVQPGGSLRLSCAASGFNIRGTDIHWVRQAPGKGLEWVAYITPAGGATFYADSVKGRFTISADTSKNTAYLQMNSLRAEDTAVYYCARHEYWFSGYMDYWGQGTLVTVSS
VL: not shown
notes: VH/VL only; Fc-bearing IgG format with trastuzumab LC, HIS/FLAG-tagged, cell-free expressed; constant regions not tied; also called Antibody 52
B6: the figures for the Bmax in test [1], in test [2] and in test [3] were 2180 MFI, 17700 MFI and 25100 MFI, respectively.

B7: SRP2060-E10 (antibody, V domains shown)
VH: EVQLLESGGGLVQPGGSLRLSCAFSGFSLSTFGMGVGWVRQAPGKGLEWVSHIWWDDDKYYHPALKGRFTISKDNSKNTVYLQMNSLRAEDTAVYYCGRNHFPHYYGSSHWYFNVWGQGTTVTVSS
VL: EIVMTQSPATLSLSPGERATLSCKASQDINSYLSWYQQKPGQAPRLLIYRANRLVDGIPARFSGSGSGTDYTLTISSLEPEDFAVYYCLQYDEFPYTFGGGTKVEIK
Regarding B7, in test [4], the “Igrov 2° Antibody Cell Killing, Nb-SC239: EC50” value worked out at 0.061 nM and the “Igrov 2° Antibody Cell Killing, Nb-SC239: span (%)” value was found to be 68%.

B8: SRP2060-B01 (antibody, V domains shown)
VH: EVQLLESGGGLVQPGGSLRLSCALSGFSLSTFGMGVGWVRQATGKGLEWVSHIWWDDDKYYHPALKGRFTISKDNSKNTVHLQMNSLRAEDTAVYYCGRNHFPHYYGSSHWYFNVWGQGTTVTVSS
VL: DIQMTQSPSTLSASVGDRVTITCKASQDINSYLSWYQQKPGKAPKLLIYRANRLVDGVPSRFSGSGSGTEFTLTISSLQPDDFATYYCLQYDEFPYTFGGGTKVEIK
On to B8, for which, in test [4], the “Igrov 2° Antibody Cell Killing, Nb-SC239: EC50” value was 0.045 nM and the “Igrov 2° Antibody Cell Killing, Nb-SC239: span (%)” value amounted to 76%.

B9: SRP2060-A06 (antibody, V domains shown)
VH: EVQLLESGGGLVQPGGSLRLSCAFSGFSLSTFGMGVGWVRQAPGKGLEWVGHIWWDDDKYYYPALKGRFTISKDNSKNTVYLQMNSLRAEDTAVYYCGRNHFPHYYGSSHWYFDVWGQGTTVTVSS
VL: DIQMTQSPSTLSASVGDRVTITCKASQDINSYLSWYQQKPGKAPKLLIYRANRLVDGVPSRFSGSGSGTEFTLTISSLQPDDFATYYCLQYDEFPYTFGGGTKVEIK
As to B9, in test [4], the “Igrov 2° Antibody Cell Killing, Nb-SC239: EC50” value was determined as 0.013 nM and the “Igrov 2° Antibody Cell Killing, Nb-SC239: span (%)” value is 66%.

B10: SRP2060-E05 (antibody, V domains shown)
VH: EVQLLESGGGLVQPGGSLRLSCAFSGFSLSTFGMGVGWVRQAPGKGLEWVSHIWWDDDKYYHPALKGRFTVSKDNSKNTVYLQMNSLRAEDTAVYYCGRNHFPHYYGSSHWYFNVWGQGTTVTVSS
VL: EIVMTQSPATLSLSPGERATLSCKASQDINSYLSWYQQKPGQAPRLLIYRANRLVDGIPARFSGSGSGTDYTLTISSLEPEDFAVYYCLQYDEFPYTFGGGTKVEIK
Turning to B10, in test [4], the “Igrov 2° Antibody Cell Killing, Nb-SC239: EC50” value was 0.22 nM and the “Igrov 2° Antibody Cell Killing, Nb-SC239: span (%)” value amounted to 71%.

B11: SRP1848-E06 (antibody, V domains shown)
VH: EVQLVESGGGLVQPSGSLRLSCAASGFNINRYYIHWVRQAPGKGLEWVGGITPNDGYTDYADSVEGRFTTSADTSKNTAYLQMNSLRAEDTAVYYCARGTWSWPSGHSYYLDYWGQGTLVTVSS
VL: not shown
notes: VH/VL only; Fc-bearing IgG format with trastuzumab LC, HIS/FLAG-tagged, cell-free expressed; constant regions not tied; also called Antibody 35
B11: the Bmax in test [1] is 2350 MFI; in test [2] it was 15800 MFI; in test [3], 25600 MFI.

B12: SRP1848-H01 (antibody, V domains shown)
VH: EVQLVESGGGLVQPGGSLRLSCAASGFNIRTQSIHWVRQAPGKGLEWIGDIFPIDGITDYADSVKGRFTISADTSKNTAYLQMNSLRAEDTAVYYCARGSWSWPSGMDYYLDYWGQGTLVTVSS
VL: not shown
notes: trastuzumab light chain; captured through Fc in SPR (IgG format); HIS- and FLAG-tagged; also called Antibody 55
Turning to B12, in the test with human FOLR1-HIS, the dissociation rate constant (koff) was determined as 0.00139 s⁻¹ and the kon came to 659000 M⁻¹ s⁻¹.

For the origin of these results see US20190233512A1 (SUTRO BIOPHARMA, published 2019).
